For one assay, the target named is T1, human GITR (human, UniProt Q9Y5U5 26-241).
T1 construct: also called glucocorticoid-induced TNFR family-related receptor; TNFRSF18
T1 sequence: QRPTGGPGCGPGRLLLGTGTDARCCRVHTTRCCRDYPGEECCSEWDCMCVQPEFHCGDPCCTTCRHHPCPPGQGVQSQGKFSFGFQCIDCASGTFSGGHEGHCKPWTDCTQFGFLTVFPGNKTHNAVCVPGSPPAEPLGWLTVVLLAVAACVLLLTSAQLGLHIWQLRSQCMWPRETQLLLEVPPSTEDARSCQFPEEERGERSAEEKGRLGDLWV
In words: flow cytometry on activated human T cells, anti-FLAG detection. As for the experimental part: Binding of purified monovalent anti-GITR Nanobodies to human GITR expressed on activated T cells was evaluated in flow cytometry. For this purpose, PBMCs from healthy donors were cultured with Dynabeads® Human T-Activator CD3/CD28 (Gibco—Life Technologies #11131D) for 7 days in a 1/2 bead/cell ratio.
Dilution series of Nanobodies starting from […] were applied to the cells. Nanobodies were allowed to associate for 30 minutes at 4° C. in FACS buffer (PBS supplemented with 10% FBS and 0.05% azide). Cells were washed by centrifugation and probed with anti-FLAG antibodies (Sigma F1804) for 30 minutes at 4° C., to detect bound Nanobody. […] Cells were washed and incubated with TOPRO3 to stain for dead cells which were subsequently removed during the gating procedure. The cells were then analysed via a BD FACSArray.

Assay [1] deals with T2, human GITR-Fc (Enzo Life Sciences, ALX-522-061-C050) (human, UniProt Q9Y5U5 26-162).
T2 construct: Bought protein; not shown: Fc part of the bought fusion protein; not described
T2 sequence: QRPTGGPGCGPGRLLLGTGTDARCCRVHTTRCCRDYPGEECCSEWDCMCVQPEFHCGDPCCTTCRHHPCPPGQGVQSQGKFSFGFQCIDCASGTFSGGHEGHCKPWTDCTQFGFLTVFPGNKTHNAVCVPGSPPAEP
In words: ProteOn XPR36; human GITR-Fc amine-coupled on GLC chip, Nanobody injected at 6 concentrations. As to the method: Affinity was determined on the Proteon XPR36. Briefly, after human GITR-Fc (Enzo Life Sciences, ALX-522-061-C050) was immobilized on a GLC chip via amine coupling, a range of 6 concentrations of different monovalent Nanobodies (representing each family) were injected. The Ko values were determined by using the calculated association rate and dissociation rate constants (Table 1) (ProteOn Manager 3.1.0, Version 3.1.0.6 (2011)).

The term EC50 denotes the concentration giving half of the maximal effect. A high value points to a need for much substance. Broadly, the Kd is a measure of binding affinity in units of concentration. In general, koff refers to a measure of how fast the partners let go of each other. A higher koff goes with fast dissociation. Usually kon stands for the second-order rate constant of association.

B1: A0231052A08 (VHH)
VHH: EVQLVESGGGLVQAGGSLRLSCVASGSISSITAMGWHRQAPGAQREGVAVISRSGATMLVDSVKGRFTIVQDNAKNTVYLQMNSLKVEDTAVYGCSAITQGRTYWGQGTLVTVSS
notes: Monovalent Nanobody expressed in E. coli with a triple Flag, HIS6 tag; also called A0231PMP052A08; PA0231PMP052A08.1; not shown: C-terminal triple FLAG and HIS6 tag
B1: the EC50 with human GITR turned out to be 23 nM. In assay [1], this molecule came in with a dissociation constant (Kd) of 24 nM, a koff of 0.00097 s⁻¹ and an on-rate constant (kon) of 41000 M⁻¹ s⁻¹.

B2: A0231003D11 (VHH)
VHH: EVQLVESGGGLVQAGESLRLSCAASGSIFSIDAMGWYRQAPGKQRELVAEISDHTTYGDSVKGRFTISRGNAENTVALQMNSLKPEDTGVYYCNVHHQRGWGTSITVTWGQGTQVTVSS
notes: Monovalent Nanobody expressed in E. coli with a triple Flag, HIS6 tag; also called A0231PMP003D11; PA0231PMP003D11.1; not shown: C-terminal triple FLAG and HIS6 tag
Regarding B2, the half-maximal effective concentration (EC50) in the assay with human GITR stood at 1.3 nM. In assay [1], this molecule registered a Kd of 4.6 nM, a koff of 0.0029 s⁻¹ and an on-rate constant (kon) of 630000 M⁻¹ s⁻¹.

B3: A0231005A03 (VHH)
VHH: EVQLVESGGGLVQPGGSLRLSCAASETIFSIDSMAWYRQAPGKQRELVAAITGGGSPNYADSVKGRFTISSDVAKRTVYLQMNSLKPEDTAVYYCNAEGQAGWGTALMDYWGKGTLVTVSS
notes: Monovalent Nanobody expressed in E. coli with a triple Flag, HIS6 tag; also called A0231PMP005A03; PA0231PMP005A03.1; not shown: C-terminal triple FLAG and HIS6 tag
B3: a half-maximal response in the assay with human GITR (EC50) required 0.79 nM. Moreover, in assay [1], the Kd came to 3.4 nM, the koff was found to be 0.0023 s⁻¹ and the kon was found to be 680000 M⁻¹ s⁻¹.

B4: A0231034A08 (VHH)
VHH: EVQLVESGGDLVQPGGSLRLSCAASGSVFSINDMGWFRQAPGKQRELVADIISRGVTNYADSVKGRFTISGDPAKNTVYLQMNSLKPEDTAVYYCNAHISTGWGRPHNNYWGQGTQVTVSS
notes: Monovalent Nanobody expressed in E. coli with a triple Flag, HIS6 tag; also called A0231PMP034A08; PA0231PMP034A08.1; not shown: C-terminal triple FLAG and HIS6 tag
On to B4, for which the response in the assay with human GITR was half-maximal at 0.54 nM (EC50). Moreover, in assay [1], the affinity, expressed as Kd, was 2.5 nM; the koff was determined as 0.00067 s⁻¹; the on-rate constant (kon) stood at 270000 M⁻¹ s⁻¹.

B5: A0231004B01 (VHH)
VHH: EVQLVESGGGLVQPGGSLRLSCAASGSIFSIDSMGWYRQAPGKQRELVAAITSSTNYADSVKGRFTISRDNAKNTVYLQMNSLKPEDTAVYYCNLEGQAGWGTALINYWGKGTLVTVSS
notes: Monovalent Nanobody expressed in E. coli with a triple Flag, HIS6 tag; also called A0231PMP004B01; PA0231PMP004B01.1; not shown: C-terminal triple FLAG and HIS6 tag
As for B5, the midpoint of the response with human GITR, the EC50, lay at 0.61 nM. In assay [1], the dissociation constant Kd was found to be 2.6 nM, the koff was determined as 0.0027 s⁻¹ and the kon is 1.1e+06 M⁻¹ s⁻¹.

B6: A0231033B02 (VHH)
VHH: EVQLVESGGGLVQPGGSLRLSCAASGTIFSISTMGWYRQAPGKQREVVAVTSGFSTNYSSAVKGRFTLSRDPAKNTVFLQMNSLQPEDTATYYCNAYLSLAWRDPDRDYWGQGTQVTVSS
notes: Monovalent Nanobody expressed in E. coli with a triple Flag, HIS6 tag; also called A0231PMP033B02; PA0231PMP033B02.1; not shown: C-terminal triple FLAG and HIS6 tag
Regarding B6, the midpoint of the response with human GITR, the EC50, lay at 21 nM. In addition, in assay [1], the equilibrium dissociation constant (Kd) stood at 16 nM, the koff stood at 0.008 s⁻¹ and the association rate constant (kon) turned out to be 490000 M⁻¹ s⁻¹.

(Values after patent US20220411521A1 (Ablynx, published 2022).)
